# Measurements taken from patent publication US20180298070A1, “PEPTIDE COMPOUND” (Takeda Pharmaceutical Company Limited, published 2018).
# Where a chain is given by its changes, count along the chain named. Non-standard residues stand in square brackets, D forms with d. No end group written: not given here. Aib = CC(C)(N)C(=O)O
# T1: human GIPR (human, UniProt P48546)
# T1 sequence: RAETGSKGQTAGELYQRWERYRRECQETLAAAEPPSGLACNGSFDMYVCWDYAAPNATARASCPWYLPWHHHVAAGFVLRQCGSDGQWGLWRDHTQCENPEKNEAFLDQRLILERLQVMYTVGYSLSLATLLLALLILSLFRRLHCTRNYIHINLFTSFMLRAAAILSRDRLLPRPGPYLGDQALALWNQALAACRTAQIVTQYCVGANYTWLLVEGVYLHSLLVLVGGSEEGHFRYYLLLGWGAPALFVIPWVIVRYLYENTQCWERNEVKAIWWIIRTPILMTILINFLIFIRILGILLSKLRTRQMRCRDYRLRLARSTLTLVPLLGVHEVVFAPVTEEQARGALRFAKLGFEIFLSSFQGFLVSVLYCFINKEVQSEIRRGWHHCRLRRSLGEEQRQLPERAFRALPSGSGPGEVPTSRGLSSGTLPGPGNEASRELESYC
# T2: human GIPR (human, UniProt P48546)
# T2 sequence: T1 sequence
# T3: human GIPR (human, UniProt P48546)
# T3 sequence: T1 sequence
# T4: human GIPR (human, UniProt P48546)
# T4 sequence: T1 sequence
# B1: Compound 307 (peptide)
# peptide: YXEGTXISDYSIXLDRXAQXNFVNWXLAQRPSSGAPPPS
# modifications: not fully specified; N-methyl on Tyr 1; Aib at 2, 13, 20; Iva at 6, 26; Lys(Eda-PEG(3)-PEG(3)-) at 17; C-terminal amide
# B2: Compound 24 (peptide)
# peptide: YAEGTVVSLYSIALDKQHQQEFVKWLLKGGPSSGAPPPSK
# B3: Compound 26 (peptide)
# peptide: B2 peptide with D15Y, Q17I
# B4: Compound 25 (peptide)
# peptide: B2 peptide with Q17I
# B5: Compound 496 (peptide)
# peptide: B1 peptide
# modifications: N-terminal methyl (Me-Tyr); Aib at 2, 13, 20; Iva at 6, 26; Lys(Oda-GGGGGG-) at 17; C-terminal NH2
# B6: Compound 521 (peptide)
# peptide: B1 peptide with L14X, A18H
# modifications: N-terminal methyl (Me-Tyr); Aib at 2, 13, 17, 20; Iva at 6, 26; Lys(Eda-GGGGGG-) at 14; C-terminal NH2
# B7: Compound 484 (peptide)
# peptide: B1 peptide with L14X, A18H
# modifications: N-terminal methyl (Me-Tyr); Aib at 2, 13, 17, 20; Iva at 6, 26; Lys(Oda-GGGGGG-) at 14; C-terminal NH2
# B8: Compound 503 (peptide)
# peptide: B1 peptide with A18H
# modifications: N-terminal methyl (Me-Tyr); Aib at 2, 13, 20; Iva at 6, 26; Lys(Heda-GGGGGG-) at 17; C-terminal NH2
# B9: Compound 307 (peptide)
# peptide: B1 peptide
# modifications: not fully specified; MeTyr at 1; Aib at 2, 13, 20; Iva at 6, 26; Lys(Eda-PEG(3)-PEG(3)-) at 17; C-terminal amide (-NH2)
# B10: Compound 26 (peptide)
# peptide: B2 peptide with D15Y, Q17I
# B11: Compound 24 (peptide)
# peptide: B2 peptide
# B12: Compound 25 (peptide)
# peptide: B2 peptide with Q17I
# B13: Compound 30 (peptide)
# peptide: Y[Aib]EGTVVSLYSI[Aib]LDRQAQ[Aib]EFVRWLLRGGPSSGAPPPSR-NH2
# modifications: N-terminus assumed
# SMILES: CC[C@H](C)[C@H](NC(=O)[C@H](CO)NC(=O)[C@H](Cc1ccc(O)cc1)NC(=O)[C@H](CC(C)C)NC(=O)[C@H](CO)NC(=O)[C@@H](NC(=O)[C@@H](NC(=O)[C@@H](NC(=O)CNC(=O)[C@H](CCC(=O)O)NC(=O)C(C)(C)NC(=O)[C@@H](N)Cc1ccc(O)cc1)[C@@H](C)O)C(C)C)C(C)C)C(=O)NC(C)(C)C(=O)N[C@@H](CC(C)C)C(=O)N[C@@H](CC(=O)O)C(=O)N[C@@H](CCCNC(=N)N)C(=O)N[C@@H](CCC(N)=O)C(=O)N[C@@H](C)C(=O)N[C@@H](CCC(N)=O)C(=O)NC(C)(C)C(=O)N[C@@H](CCC(=O)O)C(=O)N[C@@H](Cc1ccccc1)C(=O)N[C@H](C(=O)N[C@@H](CCCNC(=N)N)C(=O)N[C@@H](Cc1c[nH]c2ccccc12)C(=O)N[C@@H](CC(C)C)C(=O)N[C@@H](CC(C)C)C(=O)N[C@@H](CCCNC(=N)N)C(=O)NCC(=O)NCC(=O)N1CCC[C@H]1C(=O)N[C@@H](CO)C(=O)N[C@@H](CO)C(=O)NCC(=O)N[C@@H](C)C(=O)N1CCC[C@H]1C(=O)N1CCC[C@H]1C(=O)N1CCC[C@H]1C(=O)N[C@@H](CO)C(=O)N[C@@H](CCCNC(=N)N)C(N)=O)C(C)C
# Biological target: T1, human GIPR
# Assay: [125I]GIP displacement, hGIPR VLP
# Description: (§1) For the measurement of the binding activity to GIPR, [¹²⁵I]GIP (PerkinElmer, Inc.) in a final concentration of 100 pM and a test compound in a specified concentration were mixed to GIPR_VLP in an assay buffer (50 mM HEPES (pH 7.4, WAKO 342-01375), 5 mM EGTA (WAKO 346-01312), 5 mM MgCl₂ (WAKO 136-03995), 0.1% BSA (Merckmillipore 81-066-04) and 0.005% Tween 20 (BioRad 170-6531)) and reacted at room temperature for 2 hours. VLP to which [¹²⁵I ]GIP was bound was trapped in a GF/C glass fiber filter 96-well plate (PerkinElmer 6005274) using a cell harvester and washed with an assay buffer. The GF/C glass fiber filter 96-well plate in which VLP was trapped was dried at 42° C. overnight. Thereafter, MicroScint-O (PerkinElmer 6013611) was added to the GF/C glass fiber filter 96-well plate sealed using a backseal and the plate was sealed using a topseal. The radioactivity of each well was eventually measured using Topcount (PerkinElmer) and the binding activity of the test compound to GIPR was calculated when the [¹²⁵I]GIP binding activity in the presence of GIP in a final concentration of […] was 100% and the [¹²⁵I]GIP binding activity of the wells to which DMSO was added was 0%.
row,Binder,IC50
1,B1,5 nM
2,B2,370 nM
3,B3,420 nM
4,B4,520 nM

# Biological target: T2, human GIPR
# Assay: [125I]GIP competition, human GIPR VLP
# Description: as §1
row,Binder,IC50
1,B5,10 nM
2,B6,20 nM
3,B7,10 nM
4,B8,8 nM

# Biological target: T3, human GIPR
# Assay: cell-based or functional assay
row,Binder,"Agonist activity (EC50, M)"
1,B9,4e-11 M

# Biological target: human GLP-1R (human, UniProt P43220)
# Assay: cell-based or functional assay
row,Binder,"Agonist activity (EC50, M)"
1,B9,> 1e-06 M

# Biological target: human GLP-1R (human, UniProt P43220)
# Assay: cell-based or functional assay
# Remark: another data set of the same source
row,Binder,"Agonist activity (EC50, M)"
1,B10,> 1e-06 M
2,B11,> 1e-06 M
3,B12,> 1e-06 M
4,B13,> 1e-06 M

# Biological target: T4, human GIPR
# Assay: cell-based or functional assay
row,Binder,"Agonist activity (EC50, M)"
1,B10,1.2e-08 M
2,B11,5.1e-09 M
3,B12,1.4e-09 M
4,B13,1e-11 M
